Results reported in the supplement of paper PMC12764529.
± gives the half width of the 95% confidence interval.

What was measured:
[1] = folding stability dG unfold (combined trypsin and chymotrypsin); higher = more stable
In short: (§1)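 How resistant each design was to proteolysis was captured as K50, inferred by Bayesian fitting of sequencing counts. Unfolding free energy was then derived relative to a sequence-predicted unfolded-state K50 and a shared folded-state K50, per protease or combined. Digestion used trypsin and chymotrypsin at 11 threefold-diluted concentrations plus a no-protease condition, on mini-proteins under 80 residues without cysteine in a PA-tagged cDNA display construct. Designs were kept only when AlphaFold2 dimer inter-PAE was above 15.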

[2] = folding stability dG unfold from chymotrypsin proteolysis; higher = more stable
In short: as §1

[3] = folding stability dG unfold from trypsin proteolysis; higher = more stable
In short: as §1

Row | Sequence | folding stability dG unfold [1] [kcal/mol] | folding stability dG unfold [2] [kcal/mol] | folding stability dG unfold [3] [kcal/mol]
1 | SAGGSASPVFVATRISLPGGNASVDTSRYDPSSGTLTITVTLPDGTTTTITLTGPVSEYPADRLLLSAGGSA [r15_596_JUSTAS] | 1.13 ± 0.061 | 1.16 ± 0.051 | 1.04 ± 0.022
2 | SAGGSAGGSAGGSLPFLKAKFTFTVRATVTVTVTDDDGKTTTEEFELETTVTVTLEPKPSAGGSAGGSAGGS [r4_162_TrROS_Hall] | 3.1 ± 0.2 | 3.45 ± 0.07 | 2.88 ± 0.15
3 | SAGGSALKDFPLEEVEKVILVDLPDGKPALLVLLKGPPVVVLYPLESGKPIFIDAPLEEVLEFLLSSAGGSA [r15_810_TrMRF] | 2.83 ± 0.044 | 2.892 ± 0.014 | 2.68 ± 0.05
4 | SAGGSAGGSAEKRIVAKVTEVRENEDGEKTVRVRITLPNGEELEVEVRRVERVGDYLVIELSAGGSAGGSAG [r3_261_TrROS_Hall] | 1.29 ± 0.089 | 1.2 ± 0.048 | 1.26 ± 0.037
5 | SAGGSGVPLKITKVEVVGDKVVLTFEVPESLGTLKLNLTFELGGKPVEVEAEFDPETKYAVVVVGGSAGGSA [r2_261_TrMRF] | 2.49 ± 0.092 | 2.52 ± 0.061 | 2.37 ± 0.051
6 | SAGGSAGGSAMETVYIPKEEVEKDPEKLEEIKEKLKKELEEKGKKVEFKEDPNGGYTITVESAGGSAGGSAG [r3_75_JUSTAS] | 0.663 ± 0.13 | 0.855 ± 0.029 | 0.343 ± 0.054
7 | SAGGSAGGSAGGKKITIKNENGETFTVTEIVKYDEETKEFYIKVEVNGKTYLFKVNLEDLSAGGSAGGSAGG [r7_236_TrROS_Hall] | 3.2 ± 0.05 | 3.572 ± 0.024 | 1.81 ± 0.059
8 | SAGSSVSVSYDPNNPDKMTITITDPANGTQVSAVTAPVYKRPDGTIVVPLTITFPASGKVTTKTFTIPASAG [r5_610_JUSTAS] | 1.22 ± 0.059 | 1.13 ± 0.09 | 1.22 ± 0.019
9 | SEEEVEEPEVRVEVREIRLDDLTEEERRRLRELAERLAREEPPEELPPGYRVRVEIRDGVIVSVEVEPVPSA [r9_905_TrROS_Hall] | 1.85 ± 0.16 | 1.9 ± 0.075 | 1.84 ± 0.039
10 | SAGGSVKVELKGDYLVITIPVEVPGDKDKPALLTIVIDLSPNGKPARIEMRSLETGKPLGEFTIDLSAGGSA [r2_412_TrMRF] | 2.43 ± 0.07 | 2.63 ± 0.04 | 2.14 ± 0.099
11 | SAGGDYWVFKIEITHRNPNGEPEKWDIFIWFDPDDPDMPAKELADWIAKYLAPNNGYEVKIEEIYPVSAGGS [r8_101_TrROS] | 4.7 ± 0.31 | 5 ± 0.1 | 3.25 ± 0.15
12 | SAGGSAGGMKVTISSKGLPATITYYDPRNGTSTTVPINGDPEAAVAALKEATGLDVTDVTVTVESAGGSAGG [r6_763_JUSTAS] | 0.617 ± 0.12 | 0.52 ± 0.11 | 0.71 ± 0.04
13 | SVTITKDGNKITVTLSVNGPFTLQVNKESSTSSFSVPADESATLTIDVPNTTYKVVVEKPGQPVSTYDLLSA [r9_411_JUSTAS] | 1.97 ± 0.23 | 2.08 ± 0.17 | 1.8 ± 0.12
14 | SAGGSAPLVATEVSVEGNTIVVRSVTRLPNGTLSEDVVLIELPPLPLPPPAPWSTFPETGRLRLGPSAGGSA [r15_335_JUSTAS] | 0.481 ± 0.24 | 0.76 ± 0.21 | 0.159 ± 0.15
15 | SAGGSAGGSAGGPVVEELEEDLVTEYFRDGDDLYKVVFIPGTGKPFEKKIESIPPDEPFSAGGSAGGSAGGS [r10_240_TrMRF] | 2.34e-05 ± 0.23 | -0.0602 ± 0.21 | 0.119 ± 0.088
16 | SAGGMKYVLKIEITFKKPSGPPEKKIILVEFDPDFPDIPLEEAAERVLNEIAPKYGDEAKVSEISPVSAGGS [r8_101_TrMRF] | 2 ± 0.13 | 2.35 ± 0.066 | 1.3 ± 0.054
17 | SAGTTSVVSTETTEFPDGTVTTTTTVLYLEPEGDGYVKVSETRVTTTYTIDPATGTVVTSTTTTTPLAGSAG [r5_828_JUSTAS] | 1.99 ± 0.098 | 2.17 ± 0.063 | 1.79 ± 0.063
18 | SAGGSAGGSAGGSMSVVVTVKDPRTGSTTTVTVSPAEVEEAIEEAKKKGYSVVTVSEGGSAGGSAGGSAGGS [r4_102_JUSTAS] | 1.68 ± 0.085 | 1.43 ± 0.024 | 1.84 ± 0.1
19 | GSEIKAGRARSSDGTGRIRVVLEREDGSSVEFELDLPGLPGDTFYLDLPESLPLKAKETWVYVDDKPYPVTS [r1_70_TrMRF] | 1.08 ± 0.067 | 1.25 ± 0.037 | 0.665 ± 0.054
20 | SAGGSAEEEVYRVRVTVTYRNPETGEVVEEVELVIEVEKGKTVEEVARELAKKLNVDRVEVELVPPSAGGSA [r15_540_TrROS_Hall] | 4.27 ± 0.1 | 4.52 ± 0.091 | 3.65 ± 0.11
21 | SGQHKVTVPIEIRIYPPDPDGKWKPIGEIPIPVTYEYPKDQPEKAERQAREQVIDEIKKFAKKNGYRIYISA [r9_356_TrROS] | 0.361 ± 0.2 | 0.287 ± 0.36 | 0.452 ± 0.15
